Laboratory results reported in publication PMC5743843 (Protein Science : A Publication of the Protein Society, 2017).

T1: urease accessory protein UreH (Helicobacter pylori, UniProt Q09067 1-265)
T1 sequence: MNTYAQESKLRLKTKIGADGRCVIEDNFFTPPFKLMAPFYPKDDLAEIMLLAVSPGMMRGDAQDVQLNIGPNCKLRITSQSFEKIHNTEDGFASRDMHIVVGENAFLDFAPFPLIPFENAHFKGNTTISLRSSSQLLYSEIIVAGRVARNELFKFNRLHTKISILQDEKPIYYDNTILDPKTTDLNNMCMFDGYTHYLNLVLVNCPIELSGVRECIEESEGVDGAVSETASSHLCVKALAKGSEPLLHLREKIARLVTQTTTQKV

T2: extracellular region of Nectin-Like 2 (UniProt Q9BY67 45-374)
T2 sequence: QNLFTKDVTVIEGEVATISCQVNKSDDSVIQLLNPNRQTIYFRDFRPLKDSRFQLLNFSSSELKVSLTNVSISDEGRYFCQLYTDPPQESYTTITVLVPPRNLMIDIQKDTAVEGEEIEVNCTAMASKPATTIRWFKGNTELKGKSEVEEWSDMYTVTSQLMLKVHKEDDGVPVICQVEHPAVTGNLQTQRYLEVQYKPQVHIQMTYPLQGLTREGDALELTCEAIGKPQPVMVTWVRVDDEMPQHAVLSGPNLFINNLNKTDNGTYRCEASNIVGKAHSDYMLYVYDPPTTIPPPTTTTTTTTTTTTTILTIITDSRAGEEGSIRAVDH

T3: FtsL (E. coli, UniProt P0AEN4 1-121)
T3 sequence: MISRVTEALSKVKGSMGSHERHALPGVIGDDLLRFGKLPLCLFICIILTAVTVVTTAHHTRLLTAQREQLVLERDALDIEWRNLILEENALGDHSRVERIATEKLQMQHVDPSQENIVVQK

B1: urease accessory protein UreG (enzyme)
chain: MVKIGVCGPVGSGKTALIEALTRHMSKDYDMAVITNDIYTKEDAEFMCKNSVMPRERIIGVETGGCPHTAIREDASMNLEAVEEMHGRFPNLELLLIESGGDNLSATFNPELADFTIFVIDVAEGDKIPRKGGPGITRSDLLVINKIDLAPYVGADLKVMERDSKKMRGEKPFIFTNIRAKEGLDDVIAWIKRNALLED
B2: urease accessory protein UreF (natural protein)
chain: MDKGKSVKSTEKSVGMPPKTPKTDNNAHVDNEFLILQVNDAVFPIGSYTHSFGLETYIQQKKVTNKESALEYLKANLSSQFLYTEMLSLKLTYESALQQDLKKILGVEEVIMLSTSPMELRLANQKLGNRFIKTLQAMNELDMGEFFNAYAQKTKDPTHATSYGVFAASLGIELKKALRHYLYAQTSNMVINCVKSVPLSQNDGQKILLSLQSPFNQLIEKTLELDESHLCTASVQNDIKAMQHESLYSRLYMS
B3: extracellular region of CRTAM (domain or fragment)
chain: SLTNHTETITVEEGQTLTLKCVTSLRKNSSLQWLTPSGFTIFLNEYPALKNSKYQLLHHSANQLSITVPNVTLQDEGVYKCLHYSDSVSTKEVKVIVLATPFKPILEASVIRKQNGEEHVVLMCSTMRSKPPPQITWLLGNSMEVSGGTLHEFETDGKKCNTTSTLIIHTYGKNSTVDCIIRHRGLQGRKLVAPFRFEDLVTDEETASDALERNSLSSQDPQQPTSTVSVTEDSSTSEIDKEEKEQTTQDPDLTTEANPQYLGLARKKSG
B4: FtsB (natural protein)
chain: MGKLTLLLLAILVWLQYSLWFGKNGIHDYTRVNDDVAAQQATNAKLKARNDQLFAEIDDLNGGQEALEERARNELSMTRPGETFYRLVPDASKRAQSAGQNNR

Assays:
[1] = target: B2; test: crystal structure
[2] = target: T1, urease accessory protein UreH; test: crystal structure
crystal structure = target: the molecule itself; test: crystal structure
[3] = target: T2, extracellular region of Nectin-Like 2; test: SPR
FtsL = target: T3, FtsL; test: FRET or BRET + other: single molecule photobleaching

Question: Does B1 bind [1]?
Answer: Result: binds

Question: Does B2 bind [2]?
Answer: Result: binds

Question: Does B2 bind (crystal structure)?
Answer: Result: binds

Question: B3 was tested. Which Kd [3] did it give?
Answer: Its Kd is 37.2 nM.

Question: Which “stoichiometry N” value (FtsL) does the source give for B4 here?
Answer: The value was 1 FtsB per FtsL.
